Test results as given in US7304033 (Bristol-Myers Squibb, dated 2007).

Columns and labels:
[1] = target: T1, CD80Ig (UniProt P33681 35-242); experiment: SPR, CD80Ig immobilized, monomeric analytes
T1 construct: extracellular domain; also called soluble CD80Ig; B7-1 Ig
Protocol: (§1) Association and disassociation analyses were performed using BIA evaluation 2.1 Software (Pharmacia). Association rate constants $kon$ were calculated in two ways, assuming both homogenous single-site interactions and parallel two-site interactions. For single-site interactions, $kon$ values were calculated according to the equation $R_t=Req(1-\exp^{-ks(t-t_0)})$, where R_t is a response at a given time, t; $Req$ is the steady-state response; t_0 is the time at the start of the injection; and $k_s=dR/dt=kon \cdot Ckoff$, and where C is a concentration of analyte, calculated in terms of monomeric binding sites. For two-site interactions $kon$ values were calculated according to the equation $R_t=Req1(1-\exp^{-ks1(t-t_0)})+Req2(1-[…])$. For each model, the values of $kon$ were determined from the calculated slope (to about 70% maximal association) of plots of k_s versus C.

[2] = target: T2, CD86Ig (UniProt P42081 24-247); experiment: SPR, CD86Ig immobilized, monomeric analytes
T2 construct: extracellular domain; also called soluble CD86Ig; B7-2 Ig
Protocol: as §1

T1 sequence (P33681 whole entry, the tested form may be a part): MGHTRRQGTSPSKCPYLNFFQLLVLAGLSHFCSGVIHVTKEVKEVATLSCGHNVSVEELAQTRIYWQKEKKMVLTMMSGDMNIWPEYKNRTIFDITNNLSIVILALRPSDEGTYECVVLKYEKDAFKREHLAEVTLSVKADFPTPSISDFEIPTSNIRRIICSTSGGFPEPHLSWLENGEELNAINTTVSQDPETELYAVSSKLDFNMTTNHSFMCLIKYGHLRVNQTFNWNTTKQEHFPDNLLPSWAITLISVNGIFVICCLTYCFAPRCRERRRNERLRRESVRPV
T2 sequence (P42081 24-247): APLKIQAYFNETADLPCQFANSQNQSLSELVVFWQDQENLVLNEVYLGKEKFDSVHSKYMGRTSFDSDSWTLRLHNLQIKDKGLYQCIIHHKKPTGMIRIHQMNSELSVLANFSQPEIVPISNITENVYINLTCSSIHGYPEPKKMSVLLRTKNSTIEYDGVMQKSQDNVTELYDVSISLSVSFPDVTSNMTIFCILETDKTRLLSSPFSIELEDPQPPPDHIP

B1: L104EA29YXC120S (receptor)
chain: MHVAQPAVVLASSRGIASFVCEYASPGKYTEVRVTVLRQADSQVTEVCAATYMMGNELTFLDDSICTGTSSGNQVNLTIQGLRAMDTGLYICKVELMYPPPYYEGIGNGTQIYVIDPEPSPDSD
notes: Monomeric; prepared in an identical manner to CTLA4XC120S; also called single chain L104EA29Y extracellular domain
- fold higher affinity than CTLA4X120S [1]: ~2 fold
- fold slower rate of dissociation than CTLA4X120S [1]: ~3 fold
- fold higher affinity than CTLA4X120S [2]: ~2 fold
- fold slower rate of dissociation than CTLA4X120S [2]: ~3 fold
